Measurements as given in publication doi:10.1101/089938v2.

What was measured:
[1] = substrate: C[C@@H](N)C(=O)O; assay: racemization assay, HPLC of derivatized L- and D-Ala; type: biochemical, Streptomyces coelicolor; conditions: D- to L-Ala direction
[2] = substrate: C[C@H](N)C(=O)O; assay: as above; type: biochemical, Streptomyces coelicolor; conditions: L- to D-Ala direction

B1: AlrSco (alanine racemase from Streptomyces coelicolor A3(2), SCO4745) (Streptomyces coelicolor A3(2)) (protein)
chain: MSETTARRDADAVLRARAEIDLAALRANVRALRERAPGAALMAVVKADAYGHGAIPCARAAVAAGATWLGTATPQEALALRAAEPGLPDDVRIMCWLWTPGGPWREAVEARLDVSVSAMWAMEEVTGAARAAGVPARVQLKADTGLGRGGCQPGADWERLVGAALRAEEEGLLRVTGLWSHFACADEPGHPSIAAQLTRFREMTAYAEQRGLRPEVRHIANSPATLTLPDAHFDLVRPGIAMYGVSPSPEIGTPADFGLRPVMTLAASLALVKQVPGGHGVSYGHHYTTPGETTLGLVPLGYADGIPRHASSSGPVLVDGKWRTVAGRIAMDQFVVDLGGDRPEPGAEAVLFGPGDRGEPTAEDWAQAAGTIAYEIVTRIGSRVPRVYVNE
With B1 the Km [1] was 8.9 mM and the Km [2] was 6.3 mM.
